In article PMC4510971, “Ubinuclein-1 confers histone H3.3-specific-binding by the HIRA histone chaperone complex” (Nature Communications, 2015):
One block for each binder: values may come before it. No end group written: not given here. *: point of attachment. FITC = O=C1OC2(c3ccc(O)cc3Oc3cc(O)ccc32)c2ccc(NC(=S)*)cc21

How the values were obtained:
Details in all cases: both partners purified
H3.3/H4 [1] = target: T1, H3.3/H4 (human | X. laevis, UniProt P84243 1-136; P62799 1-103); experiment: fluorescence polarisation; direct: increasing H3/H4 titrated into 10 nM FITC-UBN1(127–148); 20 mM HEPES pH 7.5, 750 mM NaCl, 1 mM TCEP; one site total binding fit
T1 construct: histone H3.3, human, from a human cDNA library (ATCC 77430); also called H3.3(FL)/H4(FL); FL H3.3/H4; not shown: His6, N-terminal, cleaved; copies: 2 + 2

H3.1/H4 = target: T2, H3.1/H4 (human | X. laevis, UniProt P68431 1-136; P62799 1-103); experiment: as above
T2 construct: also called H3.1(FL)/H4(FL); FL H3.1/H4; not shown: His6, N-terminal, cleaved; copies: 2 + 2

H3.3/H4 [2] = target: T1, H3.3/H4; experiment: pull-down; 2 μM GST-tagged protein as bait on glutathione agarose, 4 μM H3/H4; 20 mM HEPES pH 7.5, 750 mM NaCl, 1 mM TCEP, 4 °C; Coomassie gel (Figs 2, 3, Supplementary Figs 1, 4, 5)
H3.3/H4 [3] = target: T1, H3.3/H4; experiment: ITC; 0.450 mM UBN1 injected into a cell with 30 μM H3/H4, 22 °C; 20 mM HEPES pH 7.5, 750 mM NaCl, 1 mM TCEP
H3.3/H4 [4] = target: T1, H3.3/H4; experiment: ITC + fluorescence polarisation; range of dissociation constants printed 'depending on the assay used' (ITC and FP competition against FITC-UBN1(127–148)); 750 mM NaCl buffer
H3.3/H4 [5] = target: T1, H3.3/H4; experiment: fluorescence polarisation; competition: UBN1 competitor titrated into 10 nM FITC-UBN1(127–148) with 6.5 μM H3.3/H4 or 25 μM H3.1/H4; 20 mM HEPES pH 7.5, 750 mM NaCl, 1 mM TCEP
Asf1/H3.3(FL)/H4(FL) = target: T3, Asf1/H3.3(FL)/H4(FL) (S. cerevisiae | human | X. laevis, UniProt P32447 1-169; P84243 1-136; P62799 1-103); experiment: ITC; 0.450 mM UBN1 injected into a cell with 30 μM H3/H4, 22 °C; 20 mM HEPES pH 7.5, 750 mM NaCl, 1 mM TCEP
T3 construct: histone H3.3, human; also called Asf1/H3.3(FL)/H4(FL) complex; not shown: His6, N-terminal, cleaved; copies: + +

B1: FITC-UBN1(127–148) (peptide)
peptide: {FITC}-DMGYGYDESDSFIDNSEAYDEL
notes: also called FITC-labelled UBN1 peptide; source: synthetic peptide (Genscript)
Kd (H3.3/H4 [1]): 4.3 ± 0.2 µM
Kd (H3.1/H4): 17.7 ± 2.3 µM

B2: GST-UBN1(92–175) E134A (domain or fragment)
chain: NDEEKERHKVEALARKFEEKYGGKKRRKDRIQDLIDMGYGYDASDSFIDNSEAYDELVPASLTTKYGGFYINSGTLQFRQASES
notes: one of the 27 alanine point mutants; the text names only the residue; also called E134 alanine point mutant; source: E. coli BL21-Gold(DE3), purified; not shown: GST, N-terminal, kept
binding result (H3.3/H4 [2]): binds

B3: GST-UBN1(92–175) S137A (domain or fragment)
chain: NDEEKERHKVEALARKFEEKYGGKKRRKDRIQDLIDMGYGYDESDAFIDNSEAYDELVPASLTTKYGGFYINSGTLQFRQASES
notes: also called S137 alanine point mutant; source: E. coli BL21-Gold(DE3), purified; not shown: GST, N-terminal, kept
binding result (H3.3/H4 [2]): binds

B4: GST-UBN1(92–175) S135A (domain or fragment)
chain: NDEEKERHKVEALARKFEEKYGGKKRRKDRIQDLIDMGYGYDEADSFIDNSEAYDELVPASLTTKYGGFYINSGTLQFRQASES
notes: one of the 27 alanine point mutants; the text names only the residue; also called S135 alanine point mutant; source: E. coli BL21-Gold(DE3), purified; not shown: GST, N-terminal, kept
binding result (H3.3/H4 [2]): binds

B7: UBN1(92–175) (domain or fragment)
chain: NDEEKERHKVEALARKFEEKYGGKKRRKDRIQDLIDMGYGYDESDSFIDNSEAYDELVPASLTTKYGGFYINSGTLQFRQASES
notes: also called UBN1 WT; source: E. coli BL21-Gold(DE3), purified (glutathione agarose, TEV cleavage, gel filtration); not shown: GST, N-terminal, cleaved
Kd (H3.3/H4 [4]): 7 to 17 µM

B11: UBN1(122–148) peptide (peptide)
peptide: IQDLIDMGYGYDESDSFIDNSEAYDEL
notes: also called UBN1-HRD peptide; source: synthetic peptide (Genscript)
Kd (Asf1/H3.3(FL)/H4(FL)): ~49 µM
Kd (H3.3/H4 [4]): 40 to 46 µM

Second part, the binder after the results:

binding result (H3.3/H4 [3]): binds
B5: UBN1(122–175) (domain or fragment)
chain: not shown

binding result (H3.3/H4 [3]): binds
B6: UBN1(92–148) (domain or fragment)
chain: NDEEKERHKVEALARKFEEKYGGKKRRKDRIQDLIDMGYGYDESDSFIDNSEAYDEL

binding result (H3.3/H4 [5]): binds
B8: UBN1(92–175) S137A (domain or fragment)
chain: NDEEKERHKVEALARKFEEKYGGKKRRKDRIQDLIDMGYGYDESDAFIDNSEAYDELVPASLTTKYGGFYINSGTLQFRQASES
notes: source: E. coli BL21-Gold(DE3), purified (TEV cleavage, gel filtration); not shown: GST, N-terminal, cleaved

binding result (H3.3/H4 [5]): binds
B9: UBN1(92–175) E134A (domain or fragment)
chain: NDEEKERHKVEALARKFEEKYGGKKRRKDRIQDLIDMGYGYDASDSFIDNSEAYDELVPASLTTKYGGFYINSGTLQFRQASES
notes: one of the 27 alanine point mutants; the text names only the residue; also called E134 alanine point mutant; source: E. coli BL21-Gold(DE3), purified (TEV cleavage, gel filtration); not shown: GST, N-terminal, cleaved

binding result (H3.3/H4 [5]): binds
B10: UBN1(92–175) S135A (domain or fragment)
chain: NDEEKERHKVEALARKFEEKYGGKKRRKDRIQDLIDMGYGYDEADSFIDNSEAYDELVPASLTTKYGGFYINSGTLQFRQASES
notes: one of the 27 alanine point mutants; the text names only the residue; also called S135 alanine point mutant; source: E. coli BL21-Gold(DE3), purified (TEV cleavage, gel filtration); not shown: GST, N-terminal, cleaved
